Entries after “also recorded” stand apart in the source; their conditions may differ.
Experiments:
[1] = biological target: hT40, dGA, dGAE and truncated tau fragments/peptides (Homo sapiens, UniProt P10636); experiment: Binding ELISA for epitope mapping with truncated tau proteins and biotinylated 13mer peptides; details: scAbs used as negative controls in thioflavin T assay; data not shown
Protocol: A series of binding ELISA was performed using various truncated versions of the tau protein and 13mer peptide libraries spanning the entire hT40 molecule for mapping the epitopes of anti-tau scAbs (Full list of protein antigens used is given in Table 14). In general, ELISA plates were coated with 1 μg/ml hT40 or dGA or dGAE or other truncated versions of the protein and in the case of biotinylated peptides, plates were coated with 5 μg/ml Streptavidin followed by 1 μg/ml biotinylated peptide. The plates were blocked with 2% MPBS and scAb samples added at desired starting concentrations and double diluted across the plate. Binding was detected using anti-Human C Kappa HRP conjugated secondary antibody and the resulting immunoreaction was developed and absorbance values measured as described above.
Similarly, dGA binding ‘NS’, ‘S’ and ‘M’ group scAbs were subjected to further antigen binding ELISA using shorter tau proteins and biotinylated 13mer peptides as shown below (FIGS. 10A-F) and (FIGS. 11A-R).
For anti-tau mAb SPR measurements (Biacore X100™) and epitope mapping, the same methodologies described above (see Example 16) were followed.

hT40 = hT40 (Homo sapiens, UniProt P10636); experiment: Biacore X100 SPR, scAb captured via anti-HuCk, hT40 as analyte; format: binding; details: '3a' and '3b' scAbs, Table 25, hT40
Method in brief: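 Captured scAb on anti-HuCk CM5 surface (flow cell 1 as reference) in HBS-EP+, capture set for theoretical RMax 100 RU; hT40 injected multi-cycle (0.15625–100 nM) or single-cycle (6.25–100 nM), 120 s association, 420 s dissociation, glycine pH 2.0 regeneration. Kinetics and affinity from 1:1 binding model fit.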

plasma tau = experiment: Plasma tau (Simoa) after S1D12 immunotherapy; format: in vivo, mouse; design: plasma tau, core and proline region pairing (S1G2-BT2) / plasma tau, proline region pairing (BT2-HT7): unit not given here
Protocol: (§1) In a six-week repeat-dose study, a total of 12 WT, 12 Line 1 (L1) and 12 Line 66 homozygotes (L66+/*) female mice aged 2-months at the beginning of the study were used (Table 32 for group size). Mice in each genotype were injected intraperitoneally (i.p.) with either vehicle or S1D12 (30 mg/kg), once per week, for six consecutive weeks.
Three-step assays were performed and analysed as per previously described plasma screening methods in this document.

[2] = Six-week repeat-dose study, S1D12 mAb in plasma and brain; format: in vivo, mouse
Protocol: as §1
Mice treated with S1D12 were culled seven days after the last dosing whereas vehicle-treated animals were sacrificed the following day, i.e. 8 days post-treatment. Mice were anaesthetized using an overdose of sodium pentobarbital administered intraperitoneally for blood collection. Blood was transferred to plastic vials containing lithium heparin anticoagulant, centrifuged to obtain the plasma and the entire brain was removed as described previously. Plasma and brain samples (stored at −20° C., and −80° C., respectively) were subjected to further biochemical analysis.

[3] = Pharmacokinetic study of S1D12 mAb, single dose, plasma and brain (dGAE ligand binding ELISA); format: in vivo, mouse; details: single dose 30 mg/kg i.p., NMRI mice
Protocol: For the PK study, a total of 42 female NMRI mice (Swiss-type mouse, Naval Medical Research Institute) aged 6 months were allocated into six groups according to sample collection time (Table 30 for group size). Animals were injected intraperitoneally with S1D12 (30 mg/kg) and sacrificed 24-, 48-, 72-hours and 7-, 14- and 31-days after injection to collect blood and brain samples. A control group was also included in which animals were sacrificed to collect blood and brain, but no test item was administered.
Blood samples were centrifuged to obtain plasma at 2000×g for 5 min at 6° C., and samples were stored at −20° C. After blood collection, each mouse was perfused with heparinized saline for 2-3 minutes and the entire brain removed rapidly and snap frozen in liquid nitrogen and stored at −80° C.
Briefly, dGAE (1 μg/mL) was used to coat ELISA plates and blocked with 2% Marvel. […] Following washing, HRP-conjugated anti-mouse IgG as detector was added, and the assay developed using TMB solution as normal. The absorbance at 450 nm was read using a Clariostar plate reader (BMG Labtech) and MARS Clariostar software used to calculate S1D12 concentration from a standard curve.
Average values from each group (representing a time point) was plotted (FIG. 10) and the in vivo half-life, Cmax and Tmax calculated by performing a non-compartmental analysis of the plasma data using the PKSolver2.0 software (FIG. 51, Table 31). […] Here a higher coating concertation of dGAE at 10 μg/ml was used to compete off antibody binding to tau present in the brain.

human tau = biological target: T1, human tau (Homo sapiens, UniProt P10636, G652D/P618S); experiment: Western blot ratio of human to mouse tau in L66+/+ brain after 6-week S1D12 mAb therapy; format: in vivo; details: L66+/+ mice, 30 mg/kg i.p. weekly for 6 weeks vs vehicle, S1G2 detection
T1 construct: sample A with 5 nM full length human tau (hT40); from tissue; host or cells: brain homogenate of L66+/+ transgenic mice expressing the human tau transgene
Protocol: as §1
A hemisphere of each Line 66^+/+ mouse brain was suspended in RIPA buffer and homogenised. Samples were left on ice for 1 hour and subsequently centrifuged for 10 minutes at 10,000×g at 4° C. The supernatant was collected, and the total protein was quantified using a BCA Protein Assay Kit. Brain homogenate supernatant from each mouse was separated via sodium dodecyl sulphate polyacrylamide gel electrophoresis (SDS-PAGE) with MES running buffer. […] Following washing, the secondary antibody, sheep anti-mouse IgG-HRP, was added, and the membrane was washed five times with PBST and developed with Clarity Western ECL Substrate and read using a BioSpectrum Gel imaging System (UVP). Results were analysed using ImageJ-Fiji (NIH, Version 1.53) where densitometric analysis was performed and the ratio of human to mouse tau densities was calculated.

aggregated dGAE = aggregated dGAE (Homo sapiens, UniProt P10636); experiment: Capture ELISA ranking of mAbs on dGAE aggregates; format: binding; details: 1 μg/ml capture mAb, 800 nM aggregated dGAE
Protocol: The aggregation cascade of natively unfolded tau into insoluble filaments is a defining pathological feature of AD. Therefore, it is logical to target aggregated tau filaments for both therapeutic and diagnostic purposes. The following experiment was performed to assess the ability of our dGA mAb panel to bind aggregated dGAE using a capture ELISA method. Aggregates were prepared by incubating 100 μM dGAE and 10 mM dTT for 24 h at 37° C. with shaking at 700 RPM. The following day, dGAE aggregates were centrifuged at 17,000×g for 20 min and the supernatant was removed. The remaining pellet was washed with 10 mM phosphate buffer and centrifuged as above. Washing was repeated a further two times to remove any remaining dGAE monomer. The dGAE pellet was resuspended in 100 μl of 10 mM phosphate buffer. (Using a separate capture ELISA based quantification, we have worked out the efficiency of our dGAE aggregation as 80%)
For assessing the mAb panel for aggregate binding, designated rows of a maxisorp plate were coated with 1 μg/ml of each of the capture mAbs (S1D12, S1G2, CA4, NS2A1, CE2, E2E8 and CB7) and blocked as before. Following washing, 800 nM aggregated dGAE was added to the designated wells, double diluted across the plate and incubated for 1 h at RT. The plate was washed again and 1 μg/ml S1G2 scAb was added as detection antibody and incubated for 1 h at RT. To the row where S1G2 mAb was used for capture, […] s1D12 scAb was added as […] instead of S1G2. The assay was developed using HRP labelled HuCK as described previously.

dGAE aggregates = dGAE aggregates (Homo sapiens, UniProt P10636); experiment: Sandwich ELISA on SDS/Triton X-100 treated dGAE aggregates; format: binding; details: S1D12 mAb capture, S1G2 scAb detection; SDS + Triton X-100 treated
Protocol: For aggregation, 1000 μL 100 μM dGAE+10 μL 10 mM DTT was added to a ‘LoBind’ microfuge tubes and agitated at 700 RPM/37° C., for 24 hours. Resulting sample centrifuged at 17,000×g/4° C., for 60 min and supernatant discarded to remove left over monomer. Pellet resuspended in half the original volume for future experiments and hereafter referred to as ‘aggregates’. 1 μl of aggregates was added to 1 ml of PBS and SDS was added to a final concentration of 1% (w/v). This was left to incubate on lab bench for 1 h with gentle agitation every 15 minutes. In order to neutralise the SDS effect on ELISA, Triton X-100 added to a final concentration of 3% (v/v) and mixed gently by pipetting to prevent any bubble formation. […] Similarly aggregates treated with only SDS or Triton X-100, untreated aggregates, dGAE monomers treated with only SDS or SDS+Titon X-100 were also added to designated wells as controls. All samples were then double diluted across the plate in final volumes of 100 μl. The final column was left with no protein to act as a blank. This was allowed to stand at room temperature for 1 hour followed by the addition of detection scAb-S1G2 at 10 μg/ml. Anti-HuCk HRP labelled secondary antibody was added as described previously and ELISA data generated was represented using the graph below. In addition, limits of detection (LoD) of various core binding antibody pairing for SDS Triton X-100 treated dGAE aggregates were calculated using the above describe ELISA method and substituting capture mAbs and detection scAbs as shown in Table 30.

Chain of hT40 (P10636 1-441 isoform P10636-8): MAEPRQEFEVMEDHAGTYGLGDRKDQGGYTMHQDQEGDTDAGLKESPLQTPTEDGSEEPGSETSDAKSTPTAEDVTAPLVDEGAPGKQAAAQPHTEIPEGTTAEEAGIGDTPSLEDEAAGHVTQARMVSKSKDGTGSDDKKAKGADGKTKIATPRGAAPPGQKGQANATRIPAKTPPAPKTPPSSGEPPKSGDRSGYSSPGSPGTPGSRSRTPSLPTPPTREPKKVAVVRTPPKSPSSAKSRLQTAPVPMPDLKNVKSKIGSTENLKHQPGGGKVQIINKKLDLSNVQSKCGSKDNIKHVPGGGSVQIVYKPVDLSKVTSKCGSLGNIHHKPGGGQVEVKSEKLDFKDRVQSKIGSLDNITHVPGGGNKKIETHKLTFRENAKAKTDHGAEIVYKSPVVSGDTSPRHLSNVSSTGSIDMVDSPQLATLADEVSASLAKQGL
T1 sequence (P10636 1-441 isoform P10636-8 P301S/G335D): as the sequence (P10636 1-441 isoform P10636-8) above, with P301S, G335D counted along it
Chain of aggregated dGAE (P10636 614-708): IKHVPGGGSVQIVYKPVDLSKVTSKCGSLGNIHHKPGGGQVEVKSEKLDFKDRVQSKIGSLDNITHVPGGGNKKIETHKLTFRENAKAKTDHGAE
Chain of dGAE aggregates (P10636 614-708): as above
Chain of hT40, dGA, dGAE and truncated tau fragments/peptides (P10636 614-708): as above

B1: 3aD3: anti-tau clone, SEQ ID NO: 422 (protein)
scFv: QVQLQESGPSLVKPSQTLSLTCTVSGFSLTSNGVGWVRRAPGKVPEWVGDISSGGKVYGHPALKSRLSITRDTSKSQVSLSVSSVTSEDTAVYYCVRCRDGGVSYGYDSDYWGPGLLVTVSSEGKSSGASGESKVDDQAVVTQPSSVSKSLGQSVSITCSGSSSNVGYGDYVGWFQQVPGSAPKLLIYGVTERASGVPDRFSGSRSGNTATLTISSIQAEDEADYYCASYDDSSGGIFGSGTRLTVLG
modifications: 3aD3 amino acid sequence
[1]
  cross reactivity to dGAE: no cross reactivity to dGAE
hT40
  ka: 544400 M⁻¹ s⁻¹
  kd: 0.01038 s⁻¹

B2: S1D12 mAb: S1D12 reformatted as mAb, heavy chain SEQ ID NO: 445, light chain SEQ ID NO: 446 (antibody)
heavy: QVQLQESGPSLVKPSQTLSLTCTVSGFSLNNNAVGWVRQAPGKVPESLVGCSSDGTCYYNSALKSRLDITRDTSKNQISLSLSSVTTDDAAVYYCTRGHYSIYGYDYLGTIDYWGPGLLVTVSSAKTTAPSVYPLAPVCGDTTGSSVTLGCLVKGYFPEPVTLTWNSGSLSSGVHTFPAVLQSDLYTLSSSVTVTSSTWPSQSITCNVAHPASSTKVDKKIEPRGPTIKPCPPCKCPAPNLLGGPSVFIFPPKIKDVLMISLSPIVTCVVVDVSEDDPDVQISWFVNNVEVHTAQTQTHREDYNSTLRVVSALPIQHQDWMSGKEFKCKVNNKDLPAPIERTISKPKGSVRAPQVYVLPPPEEEMTKKQVTLTCMVTDFMPEDIYVEWTNNGKTELNYKNTEPVLDSDGSYFMYSKLRVEKKNWVERNSYSCSVVHEGLHNHHTTKSFSRTPGK
light: QAVLTQPSSVSGSLGQRVSITCSGSSSNVGGGNSVGWYQHLPGSGLKTIIYDTNSRPSGVPDRFSGSRSGNTATLTINSLQAEDEGDYYCVTGDSTTHDDLVGSGTRLTVLGGQPKSSPSVTLFPPSSEELETNKATLVCTITDFYPGVVTVDWKVDGTPVTQGMETTQPSKQSNNKYMASSYLTLTARAWERHSSYSCQVTHEGHTVEKSLSRADCS
modifications: S1D12 mAB Heavy Chain; S1D12 mAB Light Chain
Plasma tau; L1 and wildtype mice
  difference in plasma tau vs vehicle, S1G2-BT2: not statistically significant
Plasma tau; L66+/+ mice, S1D12 mAb 30 mg/kg weekly for 6 weeks
  plasma tau, core and proline region pairing (S1G2-BT2): 1438±275
Plasma tau; L66 mice
  increase in plasma tau vs vehicle, S1G2-BT2: more than a threefold increase
Plasma tau; L66 mice, S1D12 mAb 30 mg/kg weekly for 6 weeks
  plasma tau, proline region pairing (BT2-HT7): 127±55
[2]; WT mice, 30 mg/kg once per week for 6 weeks vs single dose, 7 days post dose
  increase in S1D12 concentration in plasma following repeat dosing: > 3 fold
[2]; WT, L1 and L66+/+ mice, 30 mg/kg weekly for 6 weeks
  plasma S1D12 antibody crossing the blood brain barrier: 0.15-0.3%
[3]
  Tmax in the brain: 48 h
[3]; read-out: Cmax in the brain
  Cmax: 6.2 nM
Human tau
  ratio of human tau to mouse tau in brain: A decrease in the ratio of human tau to mouse tau; also recorded: A decrease in the levels of human tau was observed
Aggregated dGAE
  ability to capture aggregated dGAE: most efficient at capturing aggregated dGAE
dGAE aggregates
  dGAE aggregates detectable in sandwich ELISA: approximately 2 ng/ml

Reference: patent publication US12624096B2, “Anti-tau antibodies and methods of use thereof” (GTInvent Limited, priority 2020, dated 2026)
